# Patent publication US20230212319A1, “NOVEL ANTIGEN BINDING DOMAINS AND SYNTHETIC ANTIGEN RECEPTORS INCORPORATING THE SAME” (University of Southern California, priority 2020, published 2023)
# B1: 21882 (protein)
# chain: MALPVTALLLPLALLLHAARPDIQMTQSPSSLSASVGDRVTITCKASQDVGTAVDWYQQKPGKAPKLLISWASTRHTGVPSRFSGSGSGTDFTLTISSLQPEDFATYFCQQYNSYPLTFGQGTKVEIKRTVLEDLKNVFPPEVAVFEPSEAEISHTQKATLVCLATGFYPDHVELSWWVNGKEVHSGVCTDPQPLKEQPALNDSRYCLSSRLRVSATFWQNPRNHFRCQVQFYGLSENDEWTQDRAKPVTQIVSAEAWGRADCGFTSESYQQGVLSATILYEILLGKATLYAVLVSALVLMAMVKRKDSRGRAKRSGSGATNFSLLKQAGDVEENPGPTSMDWIWRILFLVGAATGAHSFEVQLVESGGGLVQPGGSLRLSCAASGFTFTDYTIHWVRQAPGKGLEWVANINPNNGGTTYNQKFEDRFTISRDNSKNTLYLQMNSLRAEDTAVYYCARGWNFDYWGQGTLVTVSSTRIQNPDPAVYQLRDSKSSDKSVCLFTDFDSQTNVSQSKDSDVYITDKCVLDMRSMDFKSNSAVAWSNKSDFACANAFNNSIIPEDTFFPSPESSCDVKLVEKSFETDTNLNFQNLSVIGFRILLLKVAGFNLLMTLRLWSSRAKRSGSGVKQTLNFDLLKLAGDVESNPGPSRGHMTEYKPTVRLATRDDVPRAVRTLAAAFADYPATRHTVDPDRHIERVTELQELFLTRVGLDIGKVWVADDGAAVAVWTTPESVEAGAVFAEIGPRMAELSGSRLAAQQQMEGLLAPHRPKEPAWFLATVGVSPDHQGKGLGSAVVLPGVEAAERAGVPAFLETSAPRNLPFYERLGFTVTADVEVPEGPRTWCMTRKPGA
# B2: 22177 (protein)
# chain: MALPVTALLLPLALLLHAARPLFNQEVQIPLTESYCGPCPKNWICYKNNCYQFFDESKNWYESQASCMSQNASLLKVYSKEDQDLLKLVKSYHWMGLVHIPTNGSWQWEDGSILSPNLLTIIEMQKGDCALYASSFKGYIENCSTPNTYICMQRTVGGGGSGGGGSGGGGSDLFNQEVQIPLTESYCGPCPKNWICYKNNCYQFFDESKNWYESQASCMSQNASLLKVYSKEDQDLLKLVKSYHWMGLVHIPTNGSWQWEDGSILSPNLLTIIEMQKGDCALYASSFKGYIENCSTPNTYICMQRTVGTGGGGSGGGGSGGGGSEFDIQMTQSPSSLSASVGDRVTITCKASDHINNWLAWYQQKPGQAPKLLIYGATTLETGVPSRFSGSGSGTDYTLTISSLQPEDFATYYCQQSWNTPWTFGQGTKLEIKRLEDLKNVFPPEVAVFEPSKAEIAHTQKATLVCLATGFYPDHVELSWWVNGKEVHSGVCTDPQPLKEQPALNDSRYCLSSRLRVSATFWQNPRNHFRCQVQFYGLSENDEWTQDRAKPVTQIVSAEAWGRADCGITSASYHQGVLSATILYEILLGKATLYAVLVSALVLMAMVKRKDSRGRAKRSGSGATNFSLLKQAGDVEENPGPTSATMDWIWRILFLVGAATGAHSGPQVQLQESGGGLAQAGGSLRLSCAASGRTFSMGWFRQAPGKEREFVAAITYSGGSPYYASSVRGRFTISRDNAKNTVYLQMNSLKPEDTAVYYCAANPTYGSDWNAENWGQGTQVTVSSGSGGGGSGGGGSGGGGSFEQVQLQQPGAELVKPGASVKMSCKASGYAFSSYWINWMKQKPGQGLEWIGQIYPGDGDTNYNGKFKGRATLTADTSSSTAYMQLSSLTSEDSAVYFCARSITTVVGCAMDYWGQGTSVTVSSTRIQNPDPAVYQLRDSKSSDKSVCLFTDFDSQTNVSQSKDSDVYITDKCVLDMRSMDFKSNSAVAWSNKSDFACANAFNNSIIPEDTFFPSSDVPCDVKLVEKSFETDTNLNFQNLSVIGFRILLLKVAGFNLLMTLRLWSSRAKRSGSGVKQTLNFDLLKLAGDVESNPGPSRGHMTEYKPTVRLATRDDVPRAVRTLAAAFADYPATRHTVDPDRHIERVTELQELFLTRVGLDIGKVWVADDGAAVAVWTTPESVEAGAVFAEIGPRMAELSGSRLAAQQQMEGLLAPHRPKEPAWFLATVGVSPDHQGKGLGSAVVLPGVEAAERAGVPAFLETSAPRNLPFYERLGFTVTADVEVPEGPRTWCMTRKPGA
# B3: 22166 (protein)
# chain: MALPVTALLLPLALLLHAARPEVQLQESGGGLVQPGGSLRLSCAASGRTFSSLFMGWFRQAPGKERELVAAISRYSLYTYYADSVKGRFTISADNAKNAVYLQMNSLKPEDTAVYYCASKLEYTSNDYDSWGQGTQVTVSSGTGGGGSGGGGSGGGGSEFDIQMTQSPSSLSASVGDRVTITCKASDHINNWLAWYQQKPGQAPKLLIYGATTLETGVPSRFSGSGSGTDYTLTISSLQPEDFATYYCQQSWNTPWTFGQGTKLEIKRLEIQNPDPAVYQLRDSKSSDKSVCLFTDFDSQTNVSQSKDSDVYITDKCVLDMRSMDFKSNSAVAWSNKSDFACANAFNNSIIPEDTFFPSSDVPCDVKLVEKSFETDTNLNFQNLSVIGFRILLLKVAGFNLLMTLRLWSSRAKRSGSGVKQTLNFDLLKLAGDVESNPGPTSATMDWIWRILFLVGAATGAHSGPQVQLQESGGGLAQAGGSLRLSCAASGRTFSMGWFRQAPGKEREFVAAITYSGGSPYYASSVRGRFTISRDNAKNTVYLQMNSLKPEDTAVYYCAANPTYGSDWNAENWGQGTQVTVSSGSGGGGSGGGGSGGGGSFEQVQLQQPGAELVKPGASVKMSCKASGYAFSSYWINWMKQKPGQGLEWIGQIYPGDGDTNYNGKFKGRATLTADTSSSTAYMQLSSLTSEDSAVYFCARSITTVVGCAMDYWGQGTSVTVSSTREDLKNVFPPEVAVFEPSKAEIAHTQKATLVCLATGFYPDHVELSWWVNGKEVHSGVCTDPQPLKEQPALNDSRYCLSSRLRVSATFWQNPRNHFRCQVQFYGLSENDEWTQDRAKPVTQIVSAEAWGRADCGITSASYHQGVLSATILYEILLGKATLYAVLVSALVLMAMVKRKDSRGRAKRSGSGATNFSLLKQAGDVEENPGPSRGHMTEYKPTVRLATRDDVPRAVRTLAAAFADYPATRHTVDPDRHIERVTELQELFLTRVGLDIGKVWVADDGAAVAVWTTPESVEAGAVFAEIGPRMAELSGSRLAAQQQMEGLLAPHRPKEPAWFLATVGVSPDHQGKGLGSAVVLPGVEAAERAGVPAFLETSAPRNLPFYERLGFTVTADVEVPEGPRTWCMTRKPGA
# Assays:
# [1] = test system: KMH2 (PSMA-low) cells; assay: JNG NFAT-GFP induction on co-culture with KMH2
# [2] = test system: Huh-7 cells; assay: JNG NFAT-GFP induction on co-culture with Huh-7
# [3] = test system: RAJI-CD19-KO cells; assay: JNG assay, co-culture with RAJI-CD19-KO cells; format: cell-based; conditions: co-culture with Raji-CD19-KO
# Procedure, shortened: (§1)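 Read-out is NFAT-driven GFP measured by flow cytometry after ~4–18 h co-culture of SAR-expressing JNG cells with target cells (E:T about 1:2). SARs were introduced by lentiviral spinfection and selected with puromycin or blasticidin when possible; scores (+/- to 5+ ≈ 5–50% GFP+) are relative to parental JNG cells.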
# [4] = test system: SKOV-3 cells; assay: JNG assay, co-culture with SKOV-3 cells; format: cell-based; conditions: co-culture with SKOV-3
# Experimental: Cellular supernatant is collected and assayed for the induction of cytokines (e.g., IL2).
# JNG (Jurkat cells expressing EGFP under an NFAT promoter) were infected with lentiviral vectors encoding different single chain and multi-chain SARs by spinfection in the presence of 8 µg/ml of Polybrene® (Sigma, Catalog no. H9268). The Jurkat-NFAT-GFP cells are engineered in such a way that the IL-2 promoter, which carries NFAT binding sites, is cloned upstream of the GFP gene. These cells have been used to study signaling via TCR and CAR. The different SARs were stably expressed in Jurkat NFAT-GFP cells by lentiviral mediated gene transfer, followed by selection with puromycin or blasticidin. No drug selection was used in case the construct lacked an antibiotic resistance gene. The SAR-expressing Jurkat-NFAT-GFP cells were cocultured with the target cells at E:T ratio of approximately 1:2 for approximately 4 hours to 18 hours. When the interaction between SIRs and their target antigen results in activation of the NFAT pathway, GFP expression is induced. […] GFP expression was monitored by FACS analysis. The Jurkat-NFAT-GFP (parental) cells were used as control. The structure of different constructs can be determined based on their names. […] The sequence of the other constructs in the table can be similarly determined from their names and by referring to the different Tables of this disclosure that provide the names and SEQ ID NO of the different modules. Alternatively, the composition and modular architecture of the different SAR constructs can be determined from their sequences by bioinformatics tools, including using nucleic acid and amino acids homology searches. A SAR is considered positive in the assay in case the SAR expressing Jurkat-NFAT-GFP cells show greater % GFP positive cells when cultured with the target cell line as compared to parental Jurkat-NFAT-GFP cells. […] In general, the number +/-, +, 2+, 3+, 4+, 5+ refer to approximately 5%, 10%, 20%, 30%, 40% and 50% GFP positive cells. The % of GFP induction in the above assay is dependent not only the relative strength of the SAR but also, among other factors, on the relative level of expression of the SAR in the JNG cells and the relative level of expression of the target antigen in the target cell line. To control for the difference in gene transduction efficiency of the different SAR constructs, the experiment was conducted with JNG cells transduced with SAR constructs co-expressing a drug resistance gene (e.g., puromycin or PAC) followed by drug selection to generate a stable population of SAR-expressing cells. It is to be noted that the drug resistance gene (e.g., PAC) in the SAR constructs is optional and in vivo studies were conducted with SAR constructs lacking the PAC gene.
# [5] = test system: L363 cells; assay: JNG assay, co-culture with L363 cells; format: cell-based; conditions: co-culture with L363
# Procedure, shortened: as §1
# [6] = test system: Nalm6 cells; assay: JNG assay, co-culture with Nalm6 cells; format: cell-based; conditions: co-culture with Nalm6
# Procedure, shortened: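 Values are semi-quantitative grades of GFP induction, each step approximating 10% more GFP+ cells (5+ ≈50%) above parental reporter cells, measured by FACS after SAR-transduced JNG cells were cultured with targets at ~1:2 E:T for ~4–18 h.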
# [7] = test system: RAJI cells; assay: JNG assay, co-culture with RAJI cells; format: cell-based; conditions: JNG cells expressing construct, co-culture with Raji
# Procedure, shortened: as §1
molecule,measurement,setting,value
B1,NFAT-GFP ASSAY: KMH2,[1],negligible GFP induction
same,NFAT-GFP ASSAY: Huh-7,[2],negligible GFP induction
B2,NFAT-GFP ASSAY: Raji-CD19-KO,[3],"2+ (refer to approximately 5%, 10%, 20%, 30%, 40% and 50% GFP positive cells)"
same,NFAT-GFP ASSAY: SKOV-3,[4],"2+ (refer to approximately 5%, 10%, 20%, 30%, 40% and 50% GFP positive cells)"
same,NFAT-GFP ASSAY: L363,[5],"+ (refer to approximately 5%, 10%, 20%, 30%, 40% and 50% GFP positive cells)"
same,NFAT-GFP ASSAY: Nalm6,[6],"3+ (refer to approximately 5%, 10%, 20%, 30%, 40% and 50% GFP positive cells)"
B3,NFAT-GFP ASSAY: Raji,[7],"2+ (refer to approximately 5%, 10%, 20%, 30%, 40% and 50% GFP positive cells)"
same,NFAT-GFP ASSAY: Raji-CD19-KO,[3],"2+ (refer to approximately 5%, 10%, 20%, 30%, 40% and 50% GFP positive cells)"
same,NFAT-GFP ASSAY: SKOV-3,[4],"2+ (refer to approximately 5%, 10%, 20%, 30%, 40% and 50% GFP positive cells)"
same,NFAT-GFP ASSAY: Nalm6,[6],"3+ (refer to approximately 5%, 10%, 20%, 30%, 40% and 50% GFP positive cells)"
